According to IntAct's records for PubMed 28827714:

B1: Interleukin-17F (Homo sapiens), Q96PD4 (parent)
chain: MTVKTLHGPAMVKYLLLSILGLAFLSEAAARKIPKVGHTFFQKPESCPPVPGGSMKLDIGIINENQRVSMSRNIESRSTSPWNYTVTWDPNRYPSEVVQAQCRNLGCINAQGKEDISMNSVPIQQETLVVRRKHQGCSVSFQLEKVLVTVGCTCVTPVIHHVQ
B2: Interleukin-17F (Homo sapiens), Q96PD4 (parent)
chain: B1 chain
partner: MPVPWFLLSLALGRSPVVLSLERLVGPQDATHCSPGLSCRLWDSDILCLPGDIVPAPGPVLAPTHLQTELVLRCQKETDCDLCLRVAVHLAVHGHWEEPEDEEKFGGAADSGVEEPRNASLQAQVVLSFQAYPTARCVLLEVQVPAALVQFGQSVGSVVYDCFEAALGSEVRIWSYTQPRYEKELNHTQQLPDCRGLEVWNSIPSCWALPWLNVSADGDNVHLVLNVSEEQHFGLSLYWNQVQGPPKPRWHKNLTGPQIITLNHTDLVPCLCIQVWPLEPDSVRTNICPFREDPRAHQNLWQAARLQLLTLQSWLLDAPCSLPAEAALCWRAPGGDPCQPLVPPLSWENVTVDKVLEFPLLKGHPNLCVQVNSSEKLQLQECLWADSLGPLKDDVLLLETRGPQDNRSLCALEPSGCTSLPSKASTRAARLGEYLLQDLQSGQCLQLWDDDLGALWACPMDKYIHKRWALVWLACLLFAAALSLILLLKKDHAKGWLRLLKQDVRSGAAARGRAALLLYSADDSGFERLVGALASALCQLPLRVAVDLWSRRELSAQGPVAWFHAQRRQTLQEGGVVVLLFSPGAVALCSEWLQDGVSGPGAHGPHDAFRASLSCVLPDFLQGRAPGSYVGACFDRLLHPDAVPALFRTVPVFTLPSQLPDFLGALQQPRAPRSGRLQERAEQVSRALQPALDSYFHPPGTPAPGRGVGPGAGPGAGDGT

Variants of: B1
Settings: with IL17RA
In the case of R77A, the “effect of a mutation on the interaction” value is reported as “decreasing interaction strength”.

Variants of: B2
Settings: with IL17RC
In the case of R77A, the “effect of a mutation on the interaction” value is reported as “decreasing interaction strength”.
